Source: patent publication US6897294

Molecular target: flt(1,2,3): flt-1 Ig-like domains 1, 2 and 3 only fused to the Fc of IgG (human) [IgG part: P01857]
Assay: unlabeled VEGF titrated against 125I-VEGF165 binding to 1 ng immunoreactive flt(1, 2, 3) on anti-Fc plates; 4-parameter fit (FIG. 5)

vascular endothelial growth factor VEGF165, sequence (P15692 other isoform, or with tags, fused parts or gaps limits assumed): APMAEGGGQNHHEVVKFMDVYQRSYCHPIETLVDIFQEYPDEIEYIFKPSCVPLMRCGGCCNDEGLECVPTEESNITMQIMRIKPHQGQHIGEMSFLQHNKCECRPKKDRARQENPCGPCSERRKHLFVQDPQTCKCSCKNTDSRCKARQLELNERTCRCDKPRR

vascular endothelial growth factor VEGF165 (from UniProt P15692 27-191) (ligand)
IC50: 1.34 ng/mL
